According to a protein production outcome set (Wang et al. 2014):

Assay: label from the status in PepcDB records
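Further: failed if final PepcDB status was selected cloned or expressed and not failed if soluble or beyond.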

| Sequence | protein production |
| --- | --- |
| MSHLLEKAAARGDLAALERLLDAGADLEWQHKGTGRTALLAATIAGHQPAVALLLARGANVQQPCKALGYSPLAWAASHGDTALAELLIAHGAALEQASPELQRTALMNAAQAGHEAMVALLLKAGANPSPVDFQQRNAWSLAEENGHAQVMQQLEQAGTGAPPAPAPAPSLPWPPLVPGTDSSADPVTQVRAYTLALYAWEQRGNALGHEALDAAFWAEPQQLLERFCTLRPRAYPRASYGYPTTHAEADELLGCQLLKPAQAEVLVRDPASRALCYEHRFVVKRVAGQWRIDSVKRRLAGTQKWANAIL | failed |
| MSHPDYRMNLRSLGTHRGVSAVAGPHDIGASPGDKKSKNRSTRGKKKSIFETYMSKEDVSEGLKRGTLIQGVLRINPKKFHEAFIPSPDGDRDIFIDGVVARNRALNGDLVVVKLLPEEHWKVVKPESNDKETEAAYESDIPEELCGHHLPQQSLKSYNDSPDVIVEAQFDGSDSEDGHGITQNVLVDGVKKLSVCVSEKGREDGDAPVTKDETTCISQDTRALSEKSLQRSAKVVYILEKKHSRAATGFLKLLADKNSELFRKYALFSPSDHRVPRIYVPLKDCPQDFVARPKDYANTLFICRIVDWKEDCNFALGQLAKSLGQAGEIEPETEGILTEYGVDFSDFSSEVLECLPQGLPWTIPPEEFSKRRDLRKDCIFTIDPSTARDLDDALSCKPLADGNFKVGVHIADVSYFVPEGSDLDKVAAERATSVYLVQKVVPMLPRLLCEELCSLNPMSDKLTFSVIWTLTPEGKILDEWFGRTIIRSCTKLSYEHAQSMIESPTEKIPAKELPPISPEHSSEEVHQAVLNLHGIAKQLRQQRFVDGALRLDQLKLAFTLDHETGLPQGCHIYEYRESNKPCCAGTPRPKQGCSVTWWNSATRWGCPWTSAPQEPSIKA | failed |
| MSHPSYPPAPQNDAGAGIPQVPAAPYAYGRQFQGGAQPGYQPGPDSGPYGSPVGAPAKSFMTTWILALLLGSFGVDRFYLGKIGTGIAKLLTAGGFGIWSIVDLIITLTGNARDKQGRPLAGYPENKKKAWIITIVVWFAGLIVGIVSTVLSLTFVAAAVQGAGTDAPVLPSASQEAPAPSSGTASDDGSLTVTMSEGNTVKVSLLNSGYTTEIPGMSYMKPTRGGFLLLEVSWEATAGSSYASPSNFEAFDADGAKGEEIYVEEGLGGLPSGDVAAGEMQRGVIAFDIKNGPTTVVISDDFGDKAATFTLTPAN | failed |
| MSHSHSHGHSHEPTNYNRAFIISVALNTGFVVIEVVYGLAANSLALLADAGHNLSDVLGLLLAWGASFLGRRQPTPRRTYGLRRSSILAALLNAVLVLVASGAVAWEAIQRFAQPSPVSGSTIIGVAAVGIAINMGSALMFLSGRERDLNIRGAFIHLVADAAVSLGAVLAGIAIVATGWLWFDPVVSLMIVVVIIVSTWQLFQESLNLVTDAVPAGIEPLAVRTFLAELPGVSSIHDLHIWAMSTTETALTAHLIMPAGNLSDAFLVQVNQQLHDHFGIEHTTIHIETGDPSYPCPLAQENVV | failed |
| MSHVELQPGFDFQQAGKEVLAIERECLAELDQYINQNFTLACEKMFWCKGKVVVMGMGKSGHIGRKMAATFASTGTPSFFVHPGEAAHGDLGMVTPQDVVIAISNSGESSEITALIPVLKRLHVPLICITGRPESSMARAADVHLCVKVAKEACPLGLAPTSSTTATLVMGDALAVALLKARGFTAEDFALSHPGGALGRKLLLRVNDIMHTGDEIPHVKKTASLRDALLEVTRKNLGMTVICDDNMMIEGIFTDGDLRRVFDMGVDVRQLSIADVMTPGGIRVRPGILAVEALNLMQSRHITSVMVADGDHLLGVLHMHDLLRAGVV | failed |
| MSHVLVNVAWPYANGPRHIGHVAGFGVPSDVYARYERMKGNDVLMVSGTDEHGTPILVEAEKEGLTAQELANRYNRVIAKDLCDLGLSYDLFTRTTTGNHEHVVQEMFKQCLENGYIYKGSQQVAISPSTGRTLPDRYIEGECPICHAEGARGDQCDACGNELDPDELINPVSKINGETPRFEQTEHYFLDLPALAEANKAWLETRKGWRTNVINFSLGLFKEVKPRAITRDIDWGIPVPVKGWIDNPNKKLYVWFDAVIGYLSASIEWARRQGDPEKWREWWNDPKCPAYYFMGKDNITFHSQIWPSEMLAYNGKGSKGGETGPMGPLNLPEQVVASEFMTMEGKKFSSSRGIVIYVKDILARYPVDAVRYYISVAGPESSDSDFTWAEFVRHNNEELASSWGNLVNRVANLINKNFGEIPPLDEDSMTNEDRGLLEEASAAFDVVGSSIETHHQKHALSEAMRVVGDINKYISATEPWKIKDDQARLGTVLHVAAQAVSDANHLLAPFLPHSAQKVWEALGGTGTFSPLPELKEVEDLDKPGFTYPIITGDYELGVNVHPWKSEAIEVGAVVPKPAPIFAKIPTEAVEEELARFDEALAARRAAEAERLAAEKAKLAAE | failed |
| MSHYQCAVCSSIDANPNSLAVNYQCLADSSVVGEFHVLPRHQGYTDLLHGGIASSLLDGAMTHCLLFRDIQALTAQLDVRYHAPIELDEHVTITAHCEGERRGIYQLVAQLLVNNEVRVTAKGKFIRPKLEHHHHHH | not failed |
| MSICPHIQQVFQNEKSKDGVLKTCNAARYILNHSVPKEKFLNTMKCGTCHEINSGATFMCLQCGFCGCWNHSHFLSHSKQIGHIFGINSNNGLLFCFKCEDYIGNIDLINDAILAKYWDDVCTKTMVPSMERRDGLSGLINMGSTCFMSSILQCLIHNPYFIRHSMSQIHSNNCKVRSPDKCFSCALDKIVHELYGALNTKQASSSSTSTNRQTGFIYLLTCAWKINQNLAGYSQQDAHEFWQFIINQIHQSYVLDLPNAKEVSRANNKQCECIVHTVFEGSLESSIVCPGCQNNSKTTIDPFLDLSLDIKDKKKLYECLDSFHKKEQLKDFNYHCGECNSTQDAIKQLGIHKLPSVLVLQLKRFEHLLNGSNRKLDDFIEFPTYLNMKNYCSTKEKDKHSENGKVPDIIYELIGIVSHKGTVNEGHYIAFCKISGGQWFKFNDSMVSSISQEEVLKEQAYLLFYTIRQVN | failed |
| MSIEIWITIIVFFLTMIVIFWRPRGLNEAWPAAIGAGIILITGLVSKPDVIDIVSKIGGASITILATIVMAVILESFGFFHWSAAKLANLAKGSGRRLYWYIQLLCFLMTLLFNNDGSILITTPILILLLKNLQLKPHQQIPYLLSGALIATASSAPIGESNIVNLIALNIVNMTLYMHTAMMFVPATLGLLFMSWLMYSVLKKKLPKKLPVSSYDIEEIFFTKNFHPLKGNNSVDTKQKRTRFMLKVLGFVFLMRCLLFVASFLSIPIEIVAVLGSLVLLIWRWYYLRTNPVDILKKTPWHILIFAFSMYVIIYGLHNAGLTAALVQWLEPIVNQHLLYASFAMGGLVSILSNVFNNHPALMIGTITLTEMGLDPVTLKTIYLANIIGSDIGSLLLPIGTLASLIWMYILKQNKIKVKWKDYLSVSLIVIPLTTVVTLFLLFYWVHLFFAL | failed |
| MSIEMKTQLGTVDVSKDVVATIAGGAAVDCYGIVGMASQKQIKDGLSELLGRENFRRGVVIREEEDEIHIDMYIIVSYGTKISEVAYNVQTKVKYQLETMLGIDVDSVNIFVQGVRVTNPLEHHHHHH | failed |
| MSIFNKDALSSFFGLSGEEDDYYDNYEEYEERKAVNEPPRRAARPKPQRPVQQQESYSQPAYTQQSEPVVEKPSARYRSAEAHQERDTQQAAYTEKKVVSMRSSNQSATTNTRRAQESTANAKTHKITIIEPRVYSEAMSIAKHLFAEEAVLVNFTLVEEDQARRIVDFLTGTVYALDGDIQRVGNEIFLCTPANMEIDSATAQSLANKQFFDFLEHHHHHH | failed |
| MSIGLSLTFGLYLLVLVGIGVYFFLRTETRRLTDYMLAGRDVGTWPLALSEVASVASGWTFFAWVGVGFTTGLHGLWFSMAMLVVVLFLYRYVAPTFRRQSEALDSQTVVDHLALVFRDSPWGPRIRWTATLAVVVFMASYIGAQIIAVGEAMETGLGLNYAVSVGAGGLAVALYTTLGGFDASVWTDFVQGLLVILAALALPLVAIAEIGGWGAFVTAVRAADPTLLSMTAGQTGTALALSVGSWLAFALGALGQPHGLMRFQAIRSERLLSRASVIALAFQALRLTVPLFIGMAGRVLYGSMNDPESAAMEMMVQLFPDWFAGLLLAGIIGAVLSTSDSMMLVTSADLTRLYETQLAGGVLPARMIRLGRGIVGVMALLGVGLAYWRPGTIFDIIEFAFVGLGATLGLPLAFLVLWPRTTGAGVFAAVAAGLGSAVGNLYLSPATFPILVWPITLTAFLGASYATAPSSPVTASSS | failed |
| MSIIAFLSYVIMTSITPGPSNILMMNEAQRFGFTGSWRFSSGILAGFAVLGILSGAFTISLYNWIPVVEPYFKLAGACYLIYLALQVGFTKNKKQDSTEARSSFISGFIFQLINIKSILFFLTVMSAFVLPFNHSLKSTIYYLALAIVLGWLALLLWSGFGSVFKRVFAKHDRVFRVLMCLLLMYSAVSIFR | failed |
